We go through 44 molecules from patent USRE48522 (SURVAC, dated 2021).

First the molecules themselves.
B1: Sur1L2 (peptide)
peptide: LLLGEFLKL
notes: Analogue of survivin96-104 (Sur1) with T at position 2 replaced by L
B2: Sur1M2 (peptide)
peptide: LMLGEFLKL
notes: Analogue of survivin96-104 (Sur1) with T at position 2 replaced by M; also called modified survivin96-104
B3: Sur53K9 (peptide)
peptide: DLAQCFFCK
notes: Sur53-61 with the C-terminal F replaced by K
B4: Sur113L2 (peptide)
peptide: ILKETNNKKK
notes: Sur113-122 with A at position 2 replaced by L
B5: Sur13K9 (peptide)
peptide: FLKDHRISTK
notes: Sur13-22 with the C-terminal F replaced by K
B6: Sur5K9 (peptide)
peptide: TLPPAWQPK
notes: Sur5-13 with the C-terminal F replaced by K
B7: Sur54L2 (peptide)
peptide: LLQCFFCFK
notes: Sur54-62 with A at position 2 replaced by L

The first experiment addresses T1, HLA-A2 (HLA-A*0201) (human).
T1 construct: MHC class I molecule to which the peptide is added in the assembly assay (T2 cells); folded molecules are immunoprecipitated with conformation-dependent antibody
Kind of experiment: assembly assay: HLA-A2 stabilisation, T2 cells, IP, IEF gel.
RAIEQLAAM [Sur2 (Survivin133-141)]: the binding result is listed as “no binding”.
ELTLGEFLKL (also called Sur95-104) [Sur9 (Survivin95-104)] came in with a C50 of 10 µM.
In the case of KVRRAIEQL [Sur3 (Survivin130-138)], the C50 is more than 100 µM.
The molecule LTLGEFLKL (also called Sur96-104) [Sur1 (Survivin96-104)] displayed a C50 of more than 100 µM.
Regarding B1, the C50 stood at 1 µM.
Same read-out and setting: the value for B2 was 1 µM.
Turning to SVKKQFEEL [Sur5 (Survivin88-96)], the binding result is reported as “no binding”.
Same read-out and setting: the value for TAKKVRRAI [Sur7 (Survivin127-135)] was “no binding”.
FLKLDRERA [Sur6 (Survivin101-109)] had a C50 of 30 µM.
On to ETAKKVRRAI [Sur10 (Survivin126-135)], for which the binding result is recorded as “no binding”.
The molecule TLPPAWQPFL [Sur8 (Survivin5-14)] had a C50 of 30 µM.

The next experiment concerns the target HLA-A1 (HLA-A*0101) (human). Kind of experiment: assembly assay: HLA stabilisation, TAP-deficient cell lysate, W6/32 IP, IEF gel.
With TPERMAEAGY (Sur34-43 with Y at the C-terminus) [sur34Y9], the binding result is on record as “no binding (tested: 40, 4, 0.4, 0.04 µM)”.
Turning to LKDHRISTF [Sur14-22], the binding result is listed as “no binding (tested: 40, 4, 0.4, 0.04 µM)”.
On the same count and under the same terms, the value for LKDHRISTY (Sur14-22 with Y at the C-terminus) [sur14Y9] was “no binding (tested: 40, 4, 0.4, 0.04 µM)”.
Molecule MAEAGFIHY (Sur38-46 with C changed to Y at P9) [Sur38Y9] registered a C50 of 0.8 µM.
For the molecule MAEAGFIHC (also called Survivin38-46) [Sur38-46], the binding result is on record as “no binding (tested: 40, 4, 0.4, 0.04 µM)”.
Regarding QFEELTLGEF (also called Survivin92-101) [Sur92-101], the C50 is 2 µM.
Regarding QTEELTLGEF (Sur92-101 with T at position 2) [Sur92T2], the C50 worked out at 2 µM.
For QFEELTLGEY (Sur92-101 with Y at the C-terminus) [sur92Y9], the binding result is given as “no binding (tested: 40, 4, 0.4, 0.04 µM)”.
As for QSEELTLGEF (Sur92-101 with S at position 2) [Sur92S2], the C50 was 100 µM.
For the molecule ENEPDLAQCF [Sur49-58], the binding result is on record as “no binding (tested: 40, 4, 0.4, 0.04 µM)”.
On the same count and under the same terms, the value for ENEPDLAQCY (Sur49-58 with Y at the C-terminus) [sur49Y9] was “no binding (tested: 40, 4, 0.4, 0.04 µM)”.
FEELTLGEF (also called Survivin93-101) [Sur93-101] returned a C50 of more than 100 µM.
On the same count and under the same terms, the result for FTELTLGEF (Sur93-101 with T at position 2) [Sur93T2] reads 1 µM.
Regarding FEELTLGEY (Sur93-101 with Y at the C-terminus) [sur93Y9], the binding result was “no binding (tested: 40, 4, 0.4, 0.04 µM)”.
FSELTLGEF (Sur93-101 with S at position 2) [Sur93S2]: the C50 was found to be 30 µM.
The same measure, in the same setting: the result for PTENEPDLAY (Sur47-56 with Q changed to Y at P10) [Sur47Y10] reads 0.4 µM.
Regarding PTENEPDLAQ (also called Survivin47-56) [Sur47-56], the binding result is listed as “no binding (tested: 40, 4, 0.4, 0.04 µM)”.

The next experiment concerns the target HLA-A3 (HLA-A*0301) (human). The description is as above.
With PTIRRKNLRK [SurEx3-A3-2], the binding result is “no binding (tested: 100, 10, 1, 0.1, 0.01 µM)”.
On the same count and under the same terms, the result for RITREEHKK [Sur2b-A3-1] reads “no binding (tested: 100, 10, 1, 0.1, 0.01 µM)”.
On to DLAQCFFCF [Sur 53-61], for which the binding result was “no binding (tested: 100, 10, 1, 0.1, 0.01 µM)”.
Consider B3, for which the binding result is listed as “no binding (tested: 100, 10, 1, 0.1, 0.01 µM)”.
On to RISTFKNWPK (Sur18-27 with F changed to K at P10) [Sur18K10], for which the C50 came to 0.02 µM.
With RISTFKNWPF (also called Survivin18-27) [Sur 18-27], the binding result is “no binding (tested: 100, 10, 1, 0.1, 0.01 µM)”.
In turn, KIAKETNNKK [Sur 112-121] returned a C50 of 1 µM.
Same read-out and setting: the result for TIRRKNLRK [SurEx3-A3-1] reads 0.5 µM; that for B4, more than 100 µM.
With IAKETNNKKK [Sur 113-122], the binding result is “no binding (tested: 100, 10, 1, 0.1, 0.01 µM)”.
ELTLGEFLK [Sur 95-103]: the C50 is more than 100 µM.
For the molecule B5, the binding result is given as “no binding (tested: 100, 10, 1, 0.1, 0.01 µM)”.
DLAQCFFCFK (also called Survivin53-62) [Sur 53-62] returned a C50 of 100 µM.
Same read-out and setting: the result for B6 reads 2 µM; that for B7, 1 µM.
On the same count and under the same terms, the result for KIAKETNNK [Sur 112-120] reads 2 µM.

A further experiment concerns the target HLA-A11 (HLA-A*1101) (human). The description is as above.
Turning to DLAQCFFCF [Sur 53-61], the binding result was “no binding (tested: 40, 4, 0.4, 0.04 µM)”.
Still for that read-out and setting: the result for RISTFKNWPF (also called Survivin18-27) [Sur 18-27] reads “no binding (tested: 40, 4, 0.4, 0.04 µM)”.
Take KIAKETNNKK [Sur 112-121]: the C50 is more than 100 µM.
Regarding IAKETNNKKK [Sur 113-122], the binding result is “no binding (tested: 40, 4, 0.4, 0.04 µM)”.
Consider ELTLGEFLK [Sur 95-103], for which the binding result is reported as “no binding (tested: 40, 4, 0.4, 0.04 µM)”.
In turn, DLAQCFFCFK (also called Survivin53-62) [Sur 53-62] registered a C50 of 5 µM.
KIAKETNNK [Sur 112-120] returned a C50 of 1 µM.
